{"source": "patent US20070286806A1", "about": "“Methods and Compositions for Modulating a Steroid Receptor” (Mount Sinai Hospital, priority 2004, published 2007)", "molecules": {"B1": {"name": "polypyrimidine tract binding protein-associated splicing factor (protein)", "chain": "MSRDRFRSRGGGGGGFHRRGGGGGRGGLHDFRSPPPGMGLNQNRGPMGPGPGQSGPKPPIPPPPPHQQQQQPPPQQPPPQQPPPHQPPPHPQPHQQQQPPPPPQDSSKPVVAQGPGPAPGVGSAPPASSSAPPATPPTSGAPPGSGPGPTPTPPPAVTSAPPGAPPPTPPSSGVPTTPPQAGGPPPPPAAVPGPGPGPKQGPGPGGPKGGKMPGGPKPGGGPGLSTPGGHPKPPHRGGGEPRGGRQHHPPYHQQHHQGPPPGGPGGRSEEKISDSEGFKANLSLLRRPGEKTYTQRCRLFVGNLPADITEDEFKRLFAKYGEPGEVFINKGKGFGFIKLESRALAEIAKAELDDTPMRGRQLRVRFATHAAALSVRNLSPYVSNELLEEAFSQFGPIERAVVIVDDRGRSTGKGIVEFASKPAARKAFERCSEGVFLLTTTPRPVIVEPLEQLDDEDGLPEKLAQKNPMYQKERETPPRFAQHGTFEYEYSQRWKSLDEMEKQQREQVEKNMKDAKDKLESEMEDAYHEHQANLLRQDLMRRQEELRRMEELHNQEMQKRKEMQLRQEEERRRREEEMMIRQREMEEQMRRQREESYSRMGYMDPRERDMRMGGGGAMNMGDPYGSGGQKFPPLGGGGGIGYEANPGVPPATMSGSMMGSDMRTERFGQGGAGPVGGQGPRGMGPGTPAGYGRGREEYEGPNKKPRF", "notes": "expressed from transfected His-PSF vector or in vitro translated"}}, "test_system": "PRA and PRB protein", "test": "PR protein level by western blot of whole cell lysate after co-transfection in SHM cells", "assay_type": "cell-based", "protocol": "FIG. 5. […] (A) SHM cells were transient transfected (eighteen hours) with PRA or PRB expression vector with or without increasing doses (0.2, 0.5, 1.0 and 2.0 μg) of His-PSF vector as indicated. Whole cell lysate was analyzed by western blot with PR or His tag antibody. NS=non-specific binding. (B) SHM cells were transient transfected (eighteen hours) with PRA or PRB expression vector together with 2.0 μg His tagged PSF1-707 or truncated PSF1-662. Culture media was added with or without 60 nM MG132 (Z-Leu-Leu-Leu-a1) as indicated for another 6 hours. Whole cell lysate was analyzed by western blot with PR or His tag antibody. Gβ protein was also detected as the cell lysate loading control.\nFor immunoprecipitation of the endogenous PR and PSF, T47D cells cultured in 150 mm dishes were lysed in 800 μl NETN buffer containing 150 mM NaCl plus protease inhibitor cocktail. Cell lysate were then incubated with 5 μg of PR or PSF, or control mouse IgG at 4° C. overnight, followed by the addition of 30 μl of protein A/G PLUS-agarose beads (Santa Cruz) for another two hours at 4° C. Resins were washed with NETN containing 250 mM NaCl and eluted with 1×Laemmli buffer. The eluted proteins along with the whole cell extract were western blotted by PR or PSF antibody. • GST pulldown assay: GST pulldown assay was performed as previously described (20). GST and its fusion proteins were first immobilized to glutathione-Sepharose 4B affinity matrix. The matrix was then incubated at 4° C. overnight with rabbit reticulocyte lysate (Promega) containing PR or His-PSF transcribed and translated in presence of ^35S methionine. The matrix was washed three times with cold NETN buffer before adding 1 ×Laemmli buffer to elute associated proteins. The eluted proteins were separated on 10% SDS-PAGE gel. Gels were treated with Enhancer (NEN, Boston, US) dried and analyzed by autoradiography. • Cell culture and transient transfection: SHM cells and 293T cells were maintained in DMEM plus 5% FCS (Sigma) as described before (22). For experiments involving steroid exposure, the medium was substituted with phenol red free DMEM containing 5% charcoal-treated fetal bovine serum (Hyclone, Utah, USA). Transfection was performed according to manufacturers protocol (Fementas). Cells were seeded at a density to achieve 60-80% confluency the following day. The DNA and transfection reagent were mixed and added to the medium. Cell lysates were collected at least 30 hours after transfection. For luciferase assay, cells were collected in 200 μl of lysis buffer (Promega) of which 10μl was used for the luciferase and β-Gal activity assays respectively. Luciferase activity was determined by using the luciferin reagent (Promega) according to manufacture's protocol. […]"}
{"molecule": "B1", "values": [{"measurement": "PR proteins after co-transfection with PRB/PRA", "setting": "after 24 hours", "value": "total loss of PR proteins"}, {"measurement": "level of PRA and PRB protein", "setting": "increasing dose of PSF expression vector, constant dose of PR vector", "value": "decrease"}]}
